Laboratory results as given in patent publication US20260062488A1 (AbbVie / Abbott, published 2026).

Key:
[1] = biological target: T1, cynomolgus α4β7 integrin (cynomolgus monkey); experiment: FACS, cyno CD4+ total
T1 construct: whole, on cells; On CHOK1-cα4β7 cells or cynomolgus blood lymphocytes; also called cα4β7; cyno α4β7

[2] = biological target: T1, cynomolgus α4β7 integrin; experiment: FACS, cyno CD8+ naïve
[3] = biological target: T1, cynomolgus α4β7 integrin; experiment: FACS, cyno CD8+ naïve; remark: listed apart in the source
[4] = biological target: T1, cynomolgus α4β7 integrin; experiment: FACS, cyno CD8+ memory
[5] = biological target: T1, cynomolgus α4β7 integrin; experiment: FACS, cyno CD8+ memory; remark: listed apart in the source
[6] = biological target: T2, rabbit α4β7 integrin (rabbit); experiment: FACS, rabbit lymphocytes
T2 construct: whole, on cells; On rabbit PBMCs

[7] = biological target: T1, cynomolgus α4β7 integrin; experiment: binding to cyno CD4+ Tm cells
[8] = biological target: T3, human FcRn ECD protein (human, UniProt P55899 24-297; P61769 21-119); experiment: SPR (Biacore), antibody immobilised, FcRn injected, pH 6.0, steady state; pH 6.0
T3 construct: extracellular domain
T3 sequence (P55899 24-297 limits assumed, chain 1 of 2): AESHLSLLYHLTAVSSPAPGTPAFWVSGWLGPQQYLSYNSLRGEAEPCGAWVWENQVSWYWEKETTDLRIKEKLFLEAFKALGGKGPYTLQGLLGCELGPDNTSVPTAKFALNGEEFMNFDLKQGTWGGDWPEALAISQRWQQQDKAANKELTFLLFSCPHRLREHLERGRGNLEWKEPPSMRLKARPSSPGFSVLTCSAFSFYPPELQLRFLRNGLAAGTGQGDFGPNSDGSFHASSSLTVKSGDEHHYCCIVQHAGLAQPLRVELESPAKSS
T3 sequence (P61769 21-119 limits assumed, chain 2 of 2): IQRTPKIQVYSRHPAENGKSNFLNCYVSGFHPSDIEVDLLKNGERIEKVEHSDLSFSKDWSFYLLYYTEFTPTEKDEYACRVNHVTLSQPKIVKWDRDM

[9] = biological target: T4, cynomolgus FcRn ECD protein (cynomolgus monkey, UniProt Q8SPV9 24-297; Q8SPW0 21-119); experiment: as above
T4 construct: extracellular domain
T4 sequence (Q8SPV9 24-297 limits assumed, chain 1 of 2): as the sequence (P55899 24-297 limits assumed, chain 1 of 2) above, with N39D, E44Q, G99S, S189G, S190N, L217M, S269T counted along it
T4 sequence (Q8SPW0 21-119 limits assumed, chain 2 of 2): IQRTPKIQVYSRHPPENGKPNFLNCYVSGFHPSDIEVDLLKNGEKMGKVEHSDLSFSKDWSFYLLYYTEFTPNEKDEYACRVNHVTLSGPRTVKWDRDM

[10] = biological target: T5, human FcγRI on CHO-K1 cells (human, UniProt P12314 16-374); experiment: flow cytometry on CHO-K1 cells expressing the receptor (curve FcgRI), monomeric antibody, F(ab')2 anti-human IgG AF647; N=1
T5 construct: whole, on cells
T5 sequence (P12314 16-374): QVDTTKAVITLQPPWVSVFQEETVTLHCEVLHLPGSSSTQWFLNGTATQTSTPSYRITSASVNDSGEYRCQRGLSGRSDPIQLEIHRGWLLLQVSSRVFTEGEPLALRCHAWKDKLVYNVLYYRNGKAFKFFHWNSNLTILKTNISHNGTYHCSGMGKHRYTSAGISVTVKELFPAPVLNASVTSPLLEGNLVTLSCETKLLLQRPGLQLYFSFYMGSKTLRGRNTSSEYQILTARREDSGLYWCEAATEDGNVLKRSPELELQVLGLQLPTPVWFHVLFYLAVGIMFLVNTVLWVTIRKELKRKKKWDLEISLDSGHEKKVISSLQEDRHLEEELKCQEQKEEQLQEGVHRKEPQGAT

[11] = biological target: T6, FcgRIIA H131 (human, UniProt P12318); experiment: flow cytometry on CHO-K1 cells expressing the receptor (curve FcgRIIA H131), monomeric antibody, F(ab')2 anti-human IgG AF647; N=1
T6 construct: cell surface, on engineered CHO-K1 cells; the list of molecules has only an FcγRIIa on CHO-K1 cells without the variant; also called human FcγRIIa (H131) on CHO-K1 cells
T6 sequence (receptor chain, looked up): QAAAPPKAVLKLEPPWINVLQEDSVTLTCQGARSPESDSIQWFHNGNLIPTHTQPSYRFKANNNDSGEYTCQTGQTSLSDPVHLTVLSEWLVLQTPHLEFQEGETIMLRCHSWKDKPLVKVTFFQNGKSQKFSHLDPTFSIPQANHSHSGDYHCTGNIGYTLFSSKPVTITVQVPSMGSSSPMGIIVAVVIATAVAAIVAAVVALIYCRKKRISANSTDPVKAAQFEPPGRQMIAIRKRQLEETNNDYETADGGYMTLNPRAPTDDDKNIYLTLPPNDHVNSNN

B1: Ab-h1.9d-WT (antibody, human IgG1, kappa)
heavy: not shown
light: DIQMTQSPSSLSASVGDRVTITCHASQDISDNIGWLQQKPGKSFKLLIYHGTNLEDGVPSRFSGSGSGTDYTLTISSLQPEDFATYYCVQYAQFPWTFGGGTKVEIKRTVAAPSVFIFPPSDEQLKSGTASVVCLLNNFYPREAKVQWKVDNALQSGNSQESVTEQDSKDSTYSLSSTLTLSKADYEKHKVYACEVTHQGLSSPVTKSFNRGEC
notes: IgG1/kappa with D356E and L358M (EU); also called Anti-human α4β7 (AC-166667) hu IgG1/k WT mAb
EC50 [1]: 0.03 nM | EC50 [2]: 0.042 nM | EC50 [3]: 0.042 nM | EC50 [4]: 0.036 nM | EC50 [5]: 0.036 nM | EC50 [6]: 0.089 nM | EC50 [7]: 0.01 nM | Kd [8]: 3.3 µM | Kd [9]: 2200 nM | binding result [10]: binds | binding result [11]: binds
